Assay in all cases: cell-based or functional assay
Assay [1] deals with intact rat PTH-1 receptor with HA epitope tag (rWT-HA) (rat) (UniProt P25961).
The target in assay [2] is human PTH-1 receptor (human) (UniProt Q03431).
For assay [3], the target named is truncated rat PTH-1 receptor rΔNt (rat) (UniProt P25961).
For assay [4], the target named is intact rat secretin receptor (rat) (UniProt P23811).

Where “and” joins values, the source holds several entries; their conditions need not be identical. Identical values can stand only once.

Sequence of human PTH-1 receptor (human) (Q03431 27-593): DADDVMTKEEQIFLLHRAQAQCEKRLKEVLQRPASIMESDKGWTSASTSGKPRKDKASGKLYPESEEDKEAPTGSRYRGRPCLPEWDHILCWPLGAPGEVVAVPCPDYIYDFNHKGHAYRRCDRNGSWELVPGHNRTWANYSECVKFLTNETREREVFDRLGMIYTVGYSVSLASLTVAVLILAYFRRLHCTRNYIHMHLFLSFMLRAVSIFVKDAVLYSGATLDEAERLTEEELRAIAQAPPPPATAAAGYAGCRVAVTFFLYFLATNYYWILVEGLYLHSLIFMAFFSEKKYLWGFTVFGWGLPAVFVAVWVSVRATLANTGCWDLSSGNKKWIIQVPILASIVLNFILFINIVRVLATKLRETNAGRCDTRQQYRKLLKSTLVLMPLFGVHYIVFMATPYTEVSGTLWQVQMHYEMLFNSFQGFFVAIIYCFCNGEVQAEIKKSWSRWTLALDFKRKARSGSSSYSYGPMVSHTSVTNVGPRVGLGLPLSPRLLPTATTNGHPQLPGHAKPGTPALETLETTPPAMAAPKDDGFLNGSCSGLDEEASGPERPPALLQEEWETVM
Sequence of intact rat PTH-1 receptor with HA epitope tag (rWT-HA) (rat) (P25961 other isoform, or with tags, fused parts or gaps): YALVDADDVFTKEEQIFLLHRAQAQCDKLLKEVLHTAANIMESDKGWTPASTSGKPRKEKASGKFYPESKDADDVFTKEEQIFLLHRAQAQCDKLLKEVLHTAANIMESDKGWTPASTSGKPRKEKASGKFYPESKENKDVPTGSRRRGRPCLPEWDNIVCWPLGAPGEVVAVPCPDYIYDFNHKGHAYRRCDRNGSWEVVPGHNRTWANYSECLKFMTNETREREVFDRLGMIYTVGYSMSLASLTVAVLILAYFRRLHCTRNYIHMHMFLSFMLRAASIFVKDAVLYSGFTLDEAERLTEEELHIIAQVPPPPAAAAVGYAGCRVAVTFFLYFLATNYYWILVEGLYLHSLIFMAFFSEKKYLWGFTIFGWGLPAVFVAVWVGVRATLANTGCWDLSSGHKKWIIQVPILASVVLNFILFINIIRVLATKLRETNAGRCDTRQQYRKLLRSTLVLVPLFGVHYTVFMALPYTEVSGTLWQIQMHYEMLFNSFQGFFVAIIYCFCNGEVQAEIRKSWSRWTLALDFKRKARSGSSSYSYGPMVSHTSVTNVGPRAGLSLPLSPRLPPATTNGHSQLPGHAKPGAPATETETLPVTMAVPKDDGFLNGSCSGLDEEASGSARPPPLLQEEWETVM
Sequence of truncated rat PTH-1 receptor rΔNt (rat) (P25961 other isoform, or with tags, fused parts or gaps mutant): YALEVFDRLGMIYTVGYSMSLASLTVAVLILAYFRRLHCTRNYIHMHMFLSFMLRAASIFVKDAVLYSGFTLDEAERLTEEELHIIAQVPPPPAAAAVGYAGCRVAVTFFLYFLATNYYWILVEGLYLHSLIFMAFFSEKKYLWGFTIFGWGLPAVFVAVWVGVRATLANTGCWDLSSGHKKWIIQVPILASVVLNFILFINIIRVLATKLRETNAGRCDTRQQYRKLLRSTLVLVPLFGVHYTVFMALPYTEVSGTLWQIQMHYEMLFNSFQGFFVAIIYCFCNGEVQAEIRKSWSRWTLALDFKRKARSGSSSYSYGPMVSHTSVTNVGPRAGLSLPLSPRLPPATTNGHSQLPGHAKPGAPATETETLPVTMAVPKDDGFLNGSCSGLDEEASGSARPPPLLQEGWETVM
Sequence of intact rat secretin receptor (rat) (P23811 26-449): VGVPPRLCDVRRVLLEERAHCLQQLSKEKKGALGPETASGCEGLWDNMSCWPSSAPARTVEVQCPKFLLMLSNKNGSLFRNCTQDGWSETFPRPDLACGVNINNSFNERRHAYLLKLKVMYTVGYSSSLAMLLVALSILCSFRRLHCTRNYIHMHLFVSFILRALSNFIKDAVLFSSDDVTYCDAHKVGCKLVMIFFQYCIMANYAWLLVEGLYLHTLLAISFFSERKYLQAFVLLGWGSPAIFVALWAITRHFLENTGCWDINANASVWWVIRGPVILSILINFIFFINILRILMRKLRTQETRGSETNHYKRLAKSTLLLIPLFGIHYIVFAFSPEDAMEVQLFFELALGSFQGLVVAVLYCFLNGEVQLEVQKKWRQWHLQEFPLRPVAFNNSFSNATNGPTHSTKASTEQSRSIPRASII

Turning to “[Leu11,D-Trp12]hPTHrP(7-34)NH2 (from UniProt P12272 43-70) (peptide)”, in assay [1], the reduction of the cAMP efficacy of the agonist PTH(1-14) is less than 70% and the reduction of the cAMP efficacy of the agonist PTH(1-34) is less than 70%.

In assay [2], “[Nle8,21,Tyr34]rPTH-(1-34)NH2 (from UniProt P04089 32-65) (peptide)” gave an EC50 of the cAMP response of 2 nM, an increase in intracellular cAMP levels relative to the basal cAMP level of 50 fold and a maximum cAMP response of 254 pmole/well. In addition, the decrease in cAMP potency compared with rWT-HA in assay [3] was determined as 100 fold.

In the case of “rat PTH(1-15) (from UniProt P04089 32-46) (peptide)”, in assay [2], the cAMP formation over the basal level is 20 fold; the dose required for cAMP activation relative to PTH(1-34) (orders of magnitude) was 5 and 6.

secretin(1-27) (peptide) yielded an increase in cAMP levels in assay [4] of 50 fold.

Source of the values: patent US7169567.
